Data on 167 variants can be found in the RNAGym collection of RNA variant scans (doi:10.1073/pnas.2313332121).

B1: TPR t1 (parent)
chain: GACCAAUCUGCCCUCAGAGCUCGAGAACAUCUUCGGAUGCAGAGGAGGCAGGCUUCGGUGGCGCGAUAGCGCCAACGUCCUCAACCUCCAAUGCAUCCCACCACAUGAUGAUGCCUGAAGAGCCUUGGUUUUUUG

In this data set the parent is B1. As to the kind of experiment: polymerase ribozyme fitness, log enrichment relative to wild type (log ratio); higher = more active; in vitro selection for triplet polymerase activity. The gist of the method: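 Mutant libraries were PCR-built and transcribed for each subunit of a heterodimeric triplet polymerase ribozyme and selected for one round in triplicate at −7 °C, frozen, before gel excision of extended constructs and streptavidin-bead capture. Input and output libraries were Illumina-sequenced, keeping genotypes with ≥10 input reads and ≥1 read per output. Fitness is a logarithmic ratio of genotype to wild-type enrichment, in base 2, using inverse-variance-weighted replicate averages.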
On to C13A A27C G36A, for which the “polymerase ribozyme fitness (log ratio)” value was -4.52.
The value for C12U G45C C102A was -2.34; that for C13G C15U G58C was -3.58; that for C13A G19C G69U G110U U112C was -5.05.
The result for C13G A37U G48A C49U C85U G93C G120U reads -1.53; that for C13U G52C U59C C104U G120U G127A, -1.32.
The value for C13G G47U C114A was -4.31; that for C12U G47C C97G G120C was -3.35.
Regarding C12U U133A, the “polymerase ribozyme fitness (log ratio)” value worked out at 0.306.
On to C13A A100U U131G, for which the “polymerase ribozyme fitness (log ratio)” value was -2.21.
C13G G42A C85U C124G: the “polymerase ribozyme fitness (log ratio)” value is -1.82.
For C13U C73G C82A U87C C101A G110C G127A, the “polymerase ribozyme fitness (log ratio)” value was -6.6.
In the case of C13A G61A, the “polymerase ribozyme fitness (log ratio)” value was -1.81.
Take C13G C15A: the “polymerase ribozyme fitness (log ratio)” value is -2.5.
The result for C13G C15U reads -2.51; that for C13U C123A, 1.1.
The result for C13U G42U C56U C73U C114G C123A reads -2.2; that for C13A C76G C97U C102A C104U, -3.66.
Take C13G G58U G60C: the “polymerase ribozyme fitness (log ratio)” value is -2.45.
The value for C13G C56G C101U was -2.67; that for C13A C101U was -2.13; that for C13A C64U was -1.99.
The value for C13U G23A was -5.12; that for C13U A50G was -0.113.
As for C13U C49G A50U G58A A95G C114G, the “polymerase ribozyme fitness (log ratio)” value was -5.63.
The value for C13U A74C was 0.251.
Turning to C13U G25C C62G C82A C86A C102U U109C, the “polymerase ribozyme fitness (log ratio)” value is -7.42.
The result for C13G G17C U112G U116G reads -4.51.
With C13G G71C U125A G128C, the “polymerase ribozyme fitness (log ratio)” value was -3.83.
The value for C12U U32C G69U C76G G77U C80U A84G was -4.98; that for C13U C80U A84C C124U was 1.02.
Consider C13A U38C C49G G61U U106G C115G G135C, for which the “polymerase ribozyme fitness (log ratio)” value is -6.
The result for C13G G17C A75U U87G U96A C104U reads -5.5.
The value for C13A A74G C86A C101G was -4.34; that for C13A U109A G110C G128U was -3.64.
On to C13A C88G A105G G120U, for which the “polymerase ribozyme fitness (log ratio)” value was -4.2.
The value for C13U C88U was 0.907; that for C13A A121C G128C was -1.87.
C13U C70G A83C U112C: the “polymerase ribozyme fitness (log ratio)” value is -1.45.
The value for C12U G44U A46U C85A was -4.14.
The result for C13G C56G C86G C98A C101A C102U G113A reads -6.46; that for C13G A26G C49A U96A, -5.63.
With C12U U106A, the “polymerase ribozyme fitness (log ratio)” value stood at 0.462.
In the case of C13A A16U G71C G120C, the “polymerase ribozyme fitness (log ratio)” value is -0.814.
The value for C13A A16U C94U A111U C123G U130C was -6.28.
For the variant C13G U112G, the “polymerase ribozyme fitness (log ratio)” value is -0.767.
The value for C13U A18G G52C was -3.22; that for C13G G71C was -3.5.
Consider C13G G71A, for which the “polymerase ribozyme fitness (log ratio)” value was -2.22.
Consider C13U G51U C79G G127A, for which the “polymerase ribozyme fitness (log ratio)” value is -2.92.
C13G C22G C72G C94U C99A G120C: the “polymerase ribozyme fitness (log ratio)” value was -6.57.
As for C13U G51U G52U U78C C82A, the “polymerase ribozyme fitness (log ratio)” value is -2.57.
Regarding C13G G69C C98U, the “polymerase ribozyme fitness (log ratio)” value was -3.93.
For C13G A41C, the “polymerase ribozyme fitness (log ratio)” value was -3.32.
As for C13A G69U A74U U87A A100C U109A, the “polymerase ribozyme fitness (log ratio)” value was -5.82.
As to C13U G69U C94U, the “polymerase ribozyme fitness (log ratio)” value amounted to 0.248.
With C13G G25C C49A C98U U112A C115G, the “polymerase ribozyme fitness (log ratio)” value is -7.45.
The result for C13U A37U G42U G63U C85U U112A reads -3.9; that for C12U U87A, 0.248; that for C13G C82U, -2.11.
The value for C13U A18G C49G G77U was -4.43; that for C13A G44A C89U C102G was -6.88.
Consider C12U G47A G113U, for which the “polymerase ribozyme fitness (log ratio)” value is -3.45.
The result for C13U A37C C40A C73A G93A G117U reads -3.4; that for C13A A90U, -3.48.
Consider C13U A46U U130G, for which the “polymerase ribozyme fitness (log ratio)” value is -2.
The result for C13U A18G G23A A46U A111G reads -7.19; that for C13U A105U C115A A121U, 0.733.
As for C12U U14A G110U G113A U130C, the “polymerase ribozyme fitness (log ratio)” value is -4.17.
Turning to C12U U54A C64U, the “polymerase ribozyme fitness (log ratio)” value stood at 0.381.
Consider C13A G36A G52U C97U A111C, for which the “polymerase ribozyme fitness (log ratio)” value is -2.68.
The result for C13A G48A reads -2.23; that for C13U C56G G58C, -0.174; that for C13A A26G C53G A84U A90G, -4.94.
Consider C13G C85G U112A G120C, for which the “polymerase ribozyme fitness (log ratio)” value was -1.17.
The value for C13U G45U G117U was -2.03; that for C13G U87C A121C was 0.326; that for C12U G44C A50C was -0.802.
The result for C12U U14A reads -2.23; that for C13U C82A C97A, -4.74.
The value for C13U A16U C56U U129G was -0.207; that for C13A A41U G45C C82A was -4.65.
Take C13A C40U C88U C101A U112A: the “polymerase ribozyme fitness (log ratio)” value was -2.49.
The value for C13G A74G C79U was -1.86; that for C13U G48U was -1.37.
The result for C13G A37U C53A C79A U87C U129C reads -5.34; that for C13G G48U C64U, -2.15.
The value for C13U C49U U55G U92A was -4.11.
On to C12U U33G G69U C99A C115A U125C, for which the “polymerase ribozyme fitness (log ratio)” value is -6.8.
The value for C13U C40U G48U G110A G117U A118U was -4.23; that for C13G C49U G51A U125A was -4.36.
The result for C13U A41U U126C reads -2.14; that for C13G A90C A95G, -3.14.
On to C12U G122U, for which the “polymerase ribozyme fitness (log ratio)” value worked out at 1.06.
The value for C13A G39U U59G G69C was -3.36; that for C12U U59G was 0.247; that for C12U G52A G117C was -0.882.
As for C13U G60A A100U C101U C104U A121C, the “polymerase ribozyme fitness (log ratio)” value was determined as 1.93.
Turning to C13G A37G, the “polymerase ribozyme fitness (log ratio)” value was -2.1.
The value for C13G A37U was -1.57; that for C12U G61C C94U was -0.805; that for C13A C56U C80A was -2.82.
In the case of C12U G63A G113A, the “polymerase ribozyme fitness (log ratio)” value was -1.59.
The value for C12U G61A U106A C114A was -0.698; that for C13U G69C U116C G120C was -0.88.
C13U A37G C101U: the “polymerase ribozyme fitness (log ratio)” value was -0.644.
In the case of C12U G61U A105G, the “polymerase ribozyme fitness (log ratio)” value was -1.62.
Take C13U G35A G45A U87G: the “polymerase ribozyme fitness (log ratio)” value was -4.53.
For C13A C89A, the “polymerase ribozyme fitness (log ratio)” value is -3.37.
The result for C13U G58C A84G reads -0.641.
For C13U A41G C49A G52U, the “polymerase ribozyme fitness (log ratio)” value was -1.15.
With C13A G36C, the “polymerase ribozyme fitness (log ratio)” value was -1.87.
For C13G G58C U92C, the “polymerase ribozyme fitness (log ratio)” value was -3.7.
On to C13A G51A, for which the “polymerase ribozyme fitness (log ratio)” value was -4.85.
The result for C13G G48A C56A C73A reads -3.11; that for C13A U14G G42A A84U, -3.34.
The result for C13U A18G A46C U96C A100C C123G reads -4.57.
Turning to C13U C85U, the “polymerase ribozyme fitness (log ratio)” value is -1.48.
For the variant C13G C22U G113A, the “polymerase ribozyme fitness (log ratio)” value is -4.71.
The value for C13A A18G was -3.1; that for C13U G69C was -1.26; that for C13A U81A was -3.27.
Turning to C12U G42C C73A G122A, the “polymerase ribozyme fitness (log ratio)” value is -0.687.
The value for C13A C56A was -1.3; that for C13A C56G was -2.27; that for C13U C20U C72A C76A was -2.68.
The value for C13U C20U U106A G120A was -1.72; that for C13G C15U G69A C114U was -6.44; that for C13G G47A was -2.67.
Regarding C12U G60U G69A C86U C101A U112C, the “polymerase ribozyme fitness (log ratio)” value is -6.42.
In the case of C13G C56U, the “polymerase ribozyme fitness (log ratio)” value was -1.58.
The value for C13G C20A C49U C64U U96G was -4.56; that for C12U U116G was -0.0621.
C13U A18U G42C U87A C124U: the “polymerase ribozyme fitness (log ratio)” value amounted to 0.0751.
On to C13G C40A U133A, for which the “polymerase ribozyme fitness (log ratio)” value is -2.76.
The result for C13U G44U G58A U59A G61A C62U reads -2.38.
In the case of C12U G47U A83C, the “polymerase ribozyme fitness (log ratio)” value is -2.09.
Consider C12U G61A A84U, for which the “polymerase ribozyme fitness (log ratio)” value was 0.279.
On to C13G G45U G71U C85A, for which the “polymerase ribozyme fitness (log ratio)” value is -4.6.
Consider C13U C64U A74U C82G, for which the “polymerase ribozyme fitness (log ratio)” value was -1.47.
The value for C13A A46C G69C C124G was -1.36.
Regarding C13U G35C G48C C73A A74G C104U, the “polymerase ribozyme fitness (log ratio)” value is -4.6.
The value for C13A G71A A90G was -2.51.
The value for C13U C53A U92G C101U was -1.94; that for C12U U14G C15G G61A C88U U129C was -1.38; that for C13U G52C C62U C94G A100U G113A was -3.
With C12U G63C C82U A103C, the “polymerase ribozyme fitness (log ratio)” value is -6.59.
The value for C12U G69C C73U U129G was -3.42.
The value for C13U G42U G48A U129A was -2.82.
In the case of C12U G51C C79U, the “polymerase ribozyme fitness (log ratio)” value is -2.71.
Regarding C13A C53U, the “polymerase ribozyme fitness (log ratio)” value was -2.
The value for C13G C20U G93A C124A was -1.04; that for C13U G42U G61A A90U A95U was -1.48.
With C12U G58A C62A, the “polymerase ribozyme fitness (log ratio)” value is -1.76.
The value for C13G G36U A75G G77A C123U was -0.649; that for C13A C79G was -3.47; that for C13U C89A was -1.08.
Consider C13A C70G U112A C123U, for which the “polymerase ribozyme fitness (log ratio)” value is -4.
The result for C13G C28G U96A reads -4.5; that for C13U A75G C76G U133A, -0.431; that for C12U G61U, 0.129.
The result for C12U G110U reads -0.322; that for C13G C15G A26U C94A C114U, -6.55; that for C13G C22G C53U G60A U92C A118U, -5.33.
The value for C13U A27G G47A C64U was -3.03; that for C13U G45A was -0.438.
For the variant C13U A41C G52U G60C G120A U126G, the “polymerase ribozyme fitness (log ratio)” value was -1.71.
